The source of these data is patent US20180155451A1 (published 2018).

Assay [1] has as its target T1, FcγRIa (human, UniProt P12314 16-292).
T1 construct: extracellular domain; also called FcgRI; 1a; not shown: His tag at the C terminus
Put plainly: SPR; He/Con_1a divided by He/Con_2b (FcγRIIb as reference). In general terms: Surface plasmon resonance follows binding to a sensor surface in real time, without labels.

Another assay concerns the target T2, FcγRIIb (human, UniProt P31994 43-217).
T2 construct: extracellular domain; also called FcgRIIb; 2b; not shown: His tag at the C terminus
T2 sequence (looked up): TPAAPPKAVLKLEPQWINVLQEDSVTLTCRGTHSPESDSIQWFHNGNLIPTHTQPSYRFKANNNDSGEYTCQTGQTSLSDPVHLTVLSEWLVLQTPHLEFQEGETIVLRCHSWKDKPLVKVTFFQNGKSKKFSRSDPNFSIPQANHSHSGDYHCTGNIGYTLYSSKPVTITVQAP
In words: SPR (Biacore), captured antibody, soluble FcγR; relative to GpH7-A5/GpH7-B3/GpL16-k0.

Assay [2] has as its target T1, FcγRIa. Described as above.
For assay [3], the target named is T3, FcγRIIb extracellular domain with C-terminal His tag (human, UniProt P31994 43-217).
T3 construct: extracellular domain; Expressed in FreeStyle293 cells; analyte in the Biacore assay; also called FcgRIIb; 2b; not shown: His tag at the C terminus
T3 sequence (looked up): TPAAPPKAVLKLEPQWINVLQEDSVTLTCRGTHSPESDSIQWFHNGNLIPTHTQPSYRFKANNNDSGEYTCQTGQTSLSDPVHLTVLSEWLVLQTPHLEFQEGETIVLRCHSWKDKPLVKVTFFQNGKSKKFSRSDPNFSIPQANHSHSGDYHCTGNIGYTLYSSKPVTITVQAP
In words: SPR (Biacore), antibody captured on antigen-peptide chip, FcγR as analyte; relative binding.

The target of assay [4] is T4, FcγRIa extracellular domain with C-terminal His tag (human, UniProt P12314 16-292).
T4 construct: extracellular domain; Expressed in FreeStyle293 cells; analyte in the Biacore assay; also called FcgRI; 1a; not shown: His tag at the C terminus
T4 sequence (P12314 16-292): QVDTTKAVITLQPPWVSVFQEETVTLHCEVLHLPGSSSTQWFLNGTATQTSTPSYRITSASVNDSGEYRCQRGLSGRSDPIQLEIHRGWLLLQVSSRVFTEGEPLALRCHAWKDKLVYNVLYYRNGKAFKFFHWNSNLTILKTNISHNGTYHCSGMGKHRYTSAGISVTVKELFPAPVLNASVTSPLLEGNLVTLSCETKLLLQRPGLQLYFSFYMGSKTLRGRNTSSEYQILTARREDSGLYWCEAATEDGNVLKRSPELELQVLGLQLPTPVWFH
The description is as above.

T1 sequence (P12314 16-292): as above

B1: GpH7-A5/GpH7-B3 variant V266_16H/GpL16-k0 (antibody, human IgG1, kappa)
heavy 1: not shown
heavy 2: not shown
light: DIVMTQSPLSLPVTPGEPASISCQASESLVHSNRNTYLHWYLQKPGQSPQLLIYKVSNRFSGVPDRFSGSGSGTDFTLKISRVEAEDVGVYYCSQNTHVPPTFGQGTKVEIERTVAAPSVFIFPPSDEQLKSGTASVVCLLNNFYPREAKVQWKVDNALQSGNSQESVTEQDSKDSTYSLSSTLTLSKADYEKHKVYACEVTHQGLSSPVTKSFNRGEC
notes: He Ab: mutation only in the GpH7-B3 H chain; EU numbering; also called He Ab
B1: in the assay with FcγRIa [1], the “Ia/IIb He_1a/2b” value is 1.56 ratio. Further, in the assay with FcγRIIb, the He/Con_2b is 57.2 relative, HeCon Ab = 100. For the same molecule, the He/Con_1a with FcγRIa [2] is 89.1 relative, HeCon Ab = 100.

B2: GpH7-A5/GpH7-B3 variant E269_01G/GpL16-k0 (He Ab) (antibody, human IgG1, kappa)
heavy 1: not shown
heavy 2: not shown
light: DIVMTQSPLSLPVTPGEPASISCQASESLVHSNRNTYLHWYLQKPGQSPQLLIYKVSNRFSGVPDRFSGSGSGTDFTLKISRVEAEDVGVYYCSQNTHVPPTFGQGTKVEIERTVAAPSVFIFPPSDEQLKSGTASVVCLLNNFYPREAKVQWKVDNALQSGNSQESVTEQDSKDSTYSLSSTLTLSKADYEKHKVYACEVTHQGLSSPVTKSFNRGEC
notes: Heterodimerized anti-glypican-3 IgG1; the mutation stands in the GpH7-B3 chain only
With B2, the He/Con_2b in assay [3] was 51.5 % of GpH7-A5/GpH7-B3/GpL16-k0 (=100). The He/Con_1a in assay [4] is 104 % of GpH7-A5/GpH7-B3/GpL16-k0 (=100).

B3: GpH7-A5/GpH7-B3 variant E269_13S/GpL16-k0 (He Ab) (antibody, human IgG1, kappa)
heavy 1: not shown
heavy 2: not shown
light: DIVMTQSPLSLPVTPGEPASISCQASESLVHSNRNTYLHWYLQKPGQSPQLLIYKVSNRFSGVPDRFSGSGSGTDFTLKISRVEAEDVGVYYCSQNTHVPPTFGQGTKVEIERTVAAPSVFIFPPSDEQLKSGTASVVCLLNNFYPREAKVQWKVDNALQSGNSQESVTEQDSKDSTYSLSSTLTLSKADYEKHKVYACEVTHQGLSSPVTKSFNRGEC
notes: as for B2
Regarding B3, the He/Con_2b in assay [3] was 47.8 % of GpH7-A5/GpH7-B3/GpL16-k0 (=100). In addition, the He/Con_1a in assay [4] is 103 % of GpH7-A5/GpH7-B3/GpL16-k0 (=100).

B4: GpH7-A5/GpH7-B3 variant E269_07I/GpL16-k0 (He Ab) (antibody, human IgG1, kappa)
heavy 1: not shown
heavy 2: not shown
light: DIVMTQSPLSLPVTPGEPASISCQASESLVHSNRNTYLHWYLQKPGQSPQLLIYKVSNRFSGVPDRFSGSGSGTDFTLKISRVEAEDVGVYYCSQNTHVPPTFGQGTKVEIERTVAAPSVFIFPPSDEQLKSGTASVVCLLNNFYPREAKVQWKVDNALQSGNSQESVTEQDSKDSTYSLSSTLTLSKADYEKHKVYACEVTHQGLSSPVTKSFNRGEC
notes: as for B2
Regarding B4, the He/Con_2b in assay [3] is 43.9 % of GpH7-A5/GpH7-B3/GpL16-k0 (=100). The He/Con_1a in assay [4] is 103 % of GpH7-A5/GpH7-B3/GpL16-k0 (=100).

B5: GpH7-A5/GpH7-B3 variant V266_18N/GpL16-k0 (antibody, human IgG1, kappa)
heavy 1: not shown
heavy 2: not shown
light: DIVMTQSPLSLPVTPGEPASISCQASESLVHSNRNTYLHWYLQKPGQSPQLLIYKVSNRFSGVPDRFSGSGSGTDFTLKISRVEAEDVGVYYCSQNTHVPPTFGQGTKVEIERTVAAPSVFIFPPSDEQLKSGTASVVCLLNNFYPREAKVQWKVDNALQSGNSQESVTEQDSKDSTYSLSSTLTLSKADYEKHKVYACEVTHQGLSSPVTKSFNRGEC
notes: as for B1
Regarding B5, the “Ia/IIb He_1a/2b” value with FcγRIa [1] turned out to be 1.43 ratio. In addition, the He/Con_2b with FcγRIIb was 69.7 relative, HeCon Ab = 100. In addition, in the assay with FcγRIa [2], the He/Con_1a is 99.5 relative, HeCon Ab = 100.

B6: GpH7-A5/GpH7-B3 variant E269_06M/GpL16-k0 (He Ab) (antibody, human IgG1, kappa)
heavy 1: not shown
heavy 2: not shown
light: DIVMTQSPLSLPVTPGEPASISCQASESLVHSNRNTYLHWYLQKPGQSPQLLIYKVSNRFSGVPDRFSGSGSGTDFTLKISRVEAEDVGVYYCSQNTHVPPTFGQGTKVEIERTVAAPSVFIFPPSDEQLKSGTASVVCLLNNFYPREAKVQWKVDNALQSGNSQESVTEQDSKDSTYSLSSTLTLSKADYEKHKVYACEVTHQGLSSPVTKSFNRGEC
notes: as for B2
On to B6, for which the He/Con_2b in assay [3] is 46.7 % of GpH7-A5/GpH7-B3/GpL16-k0 (=100). In addition, the He/Con_1a in assay [4] was 104 % of GpH7-A5/GpH7-B3/GpL16-k0 (=100).

B7: GpH7-A5/GpH7-B3 variant E269_05P/GpL16-k0 (He Ab) (antibody, human IgG1, kappa)
heavy 1: not shown
heavy 2: not shown
light: DIVMTQSPLSLPVTPGEPASISCQASESLVHSNRNTYLHWYLQKPGQSPQLLIYKVSNRFSGVPDRFSGSGSGTDFTLKISRVEAEDVGVYYCSQNTHVPPTFGQGTKVEIERTVAAPSVFIFPPSDEQLKSGTASVVCLLNNFYPREAKVQWKVDNALQSGNSQESVTEQDSKDSTYSLSSTLTLSKADYEKHKVYACEVTHQGLSSPVTKSFNRGEC
notes: as for B2
B7: the He/Con_2b in assay [3] was 52.6 % of GpH7-A5/GpH7-B3/GpL16-k0 (=100). The He/Con_1a in assay [4] was 102 % of GpH7-A5/GpH7-B3/GpL16-k0 (=100).

B8: GpH7-A5/GpH7-B3 variant E269_03V/GpL16-k0 (He Ab) (antibody, human IgG1, kappa)
heavy 1: not shown
heavy 2: not shown
light: DIVMTQSPLSLPVTPGEPASISCQASESLVHSNRNTYLHWYLQKPGQSPQLLIYKVSNRFSGVPDRFSGSGSGTDFTLKISRVEAEDVGVYYCSQNTHVPPTFGQGTKVEIERTVAAPSVFIFPPSDEQLKSGTASVVCLLNNFYPREAKVQWKVDNALQSGNSQESVTEQDSKDSTYSLSSTLTLSKADYEKHKVYACEVTHQGLSSPVTKSFNRGEC
notes: as for B2
With B8, the He/Con_2b in assay [3] was 45.1 % of GpH7-A5/GpH7-B3/GpL16-k0 (=100). The He/Con_1a in assay [4] was 103 % of GpH7-A5/GpH7-B3/GpL16-k0 (=100).

B9: GpH7-A5/GpH7-B3 variant E269_04F/GpL16-k0 (He Ab) (antibody, human IgG1, kappa)
heavy 1: not shown
heavy 2: not shown
light: DIVMTQSPLSLPVTPGEPASISCQASESLVHSNRNTYLHWYLQKPGQSPQLLIYKVSNRFSGVPDRFSGSGSGTDFTLKISRVEAEDVGVYYCSQNTHVPPTFGQGTKVEIERTVAAPSVFIFPPSDEQLKSGTASVVCLLNNFYPREAKVQWKVDNALQSGNSQESVTEQDSKDSTYSLSSTLTLSKADYEKHKVYACEVTHQGLSSPVTKSFNRGEC
notes: as for B2
Take B9: the He/Con_2b in assay [3] is 45 % of GpH7-A5/GpH7-B3/GpL16-k0 (=100). In addition, the He/Con_1a in assay [4] was 103 % of GpH7-A5/GpH7-B3/GpL16-k0 (=100).

B10: GpH7-A5/GpH7-B3 variant E269_08L/GpL16-k0 (He Ab) (antibody, human IgG1, kappa)
heavy 1: not shown
heavy 2: not shown
light: DIVMTQSPLSLPVTPGEPASISCQASESLVHSNRNTYLHWYLQKPGQSPQLLIYKVSNRFSGVPDRFSGSGSGTDFTLKISRVEAEDVGVYYCSQNTHVPPTFGQGTKVEIERTVAAPSVFIFPPSDEQLKSGTASVVCLLNNFYPREAKVQWKVDNALQSGNSQESVTEQDSKDSTYSLSSTLTLSKADYEKHKVYACEVTHQGLSSPVTKSFNRGEC
notes: as for B2
On to B10, for which the He/Con_2b in assay [3] was 42.9 % of GpH7-A5/GpH7-B3/GpL16-k0 (=100). In addition, the He/Con_1a in assay [4] was 104 % of GpH7-A5/GpH7-B3/GpL16-k0 (=100).

B11: GpH7-A5/GpH7-B3 variant E269_11K/GpL16-k0 (He Ab) (antibody, human IgG1, kappa)
heavy 1: not shown
heavy 2: not shown
light: DIVMTQSPLSLPVTPGEPASISCQASESLVHSNRNTYLHWYLQKPGQSPQLLIYKVSNRFSGVPDRFSGSGSGTDFTLKISRVEAEDVGVYYCSQNTHVPPTFGQGTKVEIERTVAAPSVFIFPPSDEQLKSGTASVVCLLNNFYPREAKVQWKVDNALQSGNSQESVTEQDSKDSTYSLSSTLTLSKADYEKHKVYACEVTHQGLSSPVTKSFNRGEC
notes: as for B2
B11: the He/Con_2b in assay [3] was 17.8 % of GpH7-A5/GpH7-B3/GpL16-k0 (=100). In assay [4], the He/Con_1a was 95.2 % of GpH7-A5/GpH7-B3/GpL16-k0 (=100).

B12: GpH7-A5/GpH7-B3 variant E269_12R/GpL16-k0 (He Ab) (antibody, human IgG1, kappa)
heavy 1: not shown
heavy 2: not shown
light: DIVMTQSPLSLPVTPGEPASISCQASESLVHSNRNTYLHWYLQKPGQSPQLLIYKVSNRFSGVPDRFSGSGSGTDFTLKISRVEAEDVGVYYCSQNTHVPPTFGQGTKVEIERTVAAPSVFIFPPSDEQLKSGTASVVCLLNNFYPREAKVQWKVDNALQSGNSQESVTEQDSKDSTYSLSSTLTLSKADYEKHKVYACEVTHQGLSSPVTKSFNRGEC
notes: as for B2
For the molecule B12, the He/Con_2b in assay [3] was 25.2 % of GpH7-A5/GpH7-B3/GpL16-k0 (=100). In assay [4], the He/Con_1a is 97.1 % of GpH7-A5/GpH7-B3/GpL16-k0 (=100).

B13: GpH7-A5/GpH7-B3 variant V266_20W/GpL16-k0 (antibody, human IgG1, kappa)
heavy 1: not shown
heavy 2: not shown
light: DIVMTQSPLSLPVTPGEPASISCQASESLVHSNRNTYLHWYLQKPGQSPQLLIYKVSNRFSGVPDRFSGSGSGTDFTLKISRVEAEDVGVYYCSQNTHVPPTFGQGTKVEIERTVAAPSVFIFPPSDEQLKSGTASVVCLLNNFYPREAKVQWKVDNALQSGNSQESVTEQDSKDSTYSLSSTLTLSKADYEKHKVYACEVTHQGLSSPVTKSFNRGEC
notes: as for B1
In the case of B13, the “Ia/IIb He_1a/2b” value with FcγRIa [1] was 1.27 ratio. Further, the He/Con_2b with FcγRIIb was 71.9 relative, HeCon Ab = 100. In addition, the He/Con_1a with FcγRIa [2] is 91.4 relative, HeCon Ab = 100.

B14: GpH7-A5/GpH7-B3 variant E269_02A/GpL16-k0 (He Ab) (antibody, human IgG1, kappa)
heavy 1: not shown
heavy 2: not shown
light: DIVMTQSPLSLPVTPGEPASISCQASESLVHSNRNTYLHWYLQKPGQSPQLLIYKVSNRFSGVPDRFSGSGSGTDFTLKISRVEAEDVGVYYCSQNTHVPPTFGQGTKVEIERTVAAPSVFIFPPSDEQLKSGTASVVCLLNNFYPREAKVQWKVDNALQSGNSQESVTEQDSKDSTYSLSSTLTLSKADYEKHKVYACEVTHQGLSSPVTKSFNRGEC
notes: as for B2
Regarding B14, the He/Con_2b in assay [3] is 49.9 % of GpH7-A5/GpH7-B3/GpL16-k0 (=100). Moreover, the He/Con_1a in assay [4] was 104 % of GpH7-A5/GpH7-B3/GpL16-k0 (=100).
